Assay [1] addresses TconTS1 enzymatically deglycosylated with EndoHf (native conditions) (Trypanosoma congolense). As to the kind of experiment: SEC; Superdex 200 10/300 GL, 10 mM phosphate buffer pH 7.4, 4°C, 0.5 mL/min, 100 to 300 μg TconTS in 500 μL, detection at 280 nm; column calibrated with gel filtration markers 29,000-700,000 Da; monomer, dimer and oligomer peaks.
Assay [2] concerns the target recombinant TconTS2 (Trypanosoma congolense trans-sialidase 2; CD, α-helix and LD) (Trypanosoma congolense). The description is as above.
Another assay deals with T1, TconTS2-LD (Trypanosoma congolense, UniProt W0YLD6).
T1 construct: gene TS2; C-terminal lectin-like domain without the CD-LD linker alpha-helix; N-terminal His-MBP and C-terminal SNAP-Strep tags kept; expressed in E. coli Rosetta pLacI
As to the kind of experiment: STD NMR. Type of assay: binding. Particulars: 5.5 uM protein, 3.45 mM ligand; deuterated phosphate pD 7.4; site distinct from mannotriose site.

The target in assay [3] is recombinant TconTS1 (Trypanosoma congolense trans-sialidase 1; CD, α-helix and LD) (Trypanosoma congolense). As to the kind of experiment: SEC; Superdex 200 10/300 GL, 10 mM phosphate buffer pH 7.4, 4°C, 0.5 mL/min, 100 to 300 μg TconTS in 500 μL, detection at 280 nm; column calibrated with gel filtration markers 29,000-700,000 Da; monomer, dimer and oligomer peaks. (In general: Size exclusion chromatography separates by hydrodynamic size, large species first.)

Values joined by “and” are separate entries in the source; they are usually repeats but may differ in a detail not shown here. Equal entries are not always repeated.

Usually stoichiometry N stands for the number of molecules, sites or subunits per partner or assembly. In assay [1], “TconTS1 enzymatically deglycosylated with EndoHf (native conditions) (enzyme)” registered a stoichiometry N of 2.

On to “recombinant TconTS2 (Trypanosoma congolense trans-sialidase 2; CD, α-helix and LD) (enzyme)”, for which, in assay [2], the stoichiometry N was 2.

For the compound `OC[C@H]1O[C@@H](O[C@H]2[C@H](O)[C@@H](O)[C@@H](O)O[C@@H]2CO)[C@H](O)[C@@H](O)[C@H]1O` [lactose, β-D-galactosyl-(1–4)-α-D-glucose], on TconTS2-LD, the “STD NMR” value is “Binding of lactose to TconTS2-LD was also clearly observed (Fig 3B)”.

For “recombinant TconTS1 (Trypanosoma congolense trans-sialidase 1; CD, α-helix and LD) (enzyme)”, in assay [3], the ratio of monomer to dimer (monomer:dimer) was determined as 1; the stoichiometry N was 2 and 4.

Source of the values: publication PMC4608562, “Carbohydrate Recognition Specificity of Trans-sialidase Lectin Domain from Trypanosoma congolense” (PLoS Neglected Tropical Diseases, 2015).
